T1: Ac-(NPNA)2-NH2 peptide (Plasmodium falciparum (synthetic repeat …))
T1 construct: two NPNA repeats of the central repeat region of P. falciparum circumsporozoite protein (PfCSP); also called (NPNA)2 peptide; source: synthetic peptide, bought: InnoPep Inc. (>98% purity)
T1 chain: Ac-NPNANPNA-NH2


Biological target: T1, Ac-(NPNA)2-NH2 peptide
Test: ITC; MicroCal Auto-iTC200; peptide 134 uM in the syringe, Fab in the cell (9.2 uM Fab311, 9.6 uM Fab311R); Dulbecco's PBS; 25 °C; triplicate experiments, 16 injections
Details: both partners purified

Binder	Kd [µM]	stoichiometry N
Fab311 (Fab of monoclonal antibody mAb311) (Fab, V domains shown, heavy chain of Fab311; cryo-EM models 6MHG and 6MB3 hold the variable domains only; germline IGHV3-33*01; light chain of Fab311; germline IGLV1-40*01; human antibody isolated from an RTS,S/AS01B vaccinee; source: FreeStyle 293-F cells, purified as previously described (15)) VH: QVQLVESGGGVVPPGRSLRLSCATSGFTFSNYGMHWVRQAPGKGLEWVAIIWYDGSRNFYAASVEGRFTISRDNSKNTLYLQMNSLRVEDTAVYYCARAAYYDTSGYGDYWGQGTLVTVSS VL: QSVLTQPPSVSGAPGQTVTISCTGGSSNIGAGYDVHWYQQLPGTAPKLLIYGNINRPSGVPDRFSGSKSGTSASLAITGLQAEDEADYYCQSYDRRLSGSWVFGGGTKLTVL	0.16 ± 0.007	1.19 ± 0.04
Fab311R (Fab311 inter-Fab contact residue reverted) (Fab, V domains shown, the PDB entries hold the parent Fab311; also called germline-reverted Fab311; source: FreeStyle 293-F cells) VH: QVQLVESGGGVVPPGRSLRLSCATSGFTFSSYGMHWVRQAPGKGLEWVAIIWYDGSNKFYAASVKGRFTISRDNSKNTLYLQMNSLRVEDTAVYYCARAAYYDTSGYGDYWGQGTLVTVSS VL: QSVLTQPPSVSGAPGQTVTISCTGGSSNIGAGYDVHWYQQLPGTAPKLLIYGNINRPSGVPDRFSGSKSGTSASLAITGLQAEDEADYYCQSYDSSLSGSWVFGGGTKLTVL	0.135 ± 0.056	1.21 ± 0.03
